Measurements from US20060259987.

T1: LEAI.474
T1 chain: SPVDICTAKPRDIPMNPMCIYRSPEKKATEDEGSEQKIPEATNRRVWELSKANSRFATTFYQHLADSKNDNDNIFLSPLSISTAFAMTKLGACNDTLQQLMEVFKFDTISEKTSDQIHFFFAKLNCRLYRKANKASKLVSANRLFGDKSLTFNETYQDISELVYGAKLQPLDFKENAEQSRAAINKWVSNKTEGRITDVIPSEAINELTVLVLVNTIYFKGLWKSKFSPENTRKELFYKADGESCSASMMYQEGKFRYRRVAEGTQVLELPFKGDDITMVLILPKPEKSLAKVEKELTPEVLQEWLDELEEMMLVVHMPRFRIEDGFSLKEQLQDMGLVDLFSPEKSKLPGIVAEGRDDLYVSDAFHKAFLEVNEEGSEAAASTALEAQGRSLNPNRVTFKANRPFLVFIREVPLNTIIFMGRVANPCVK

T2: LEAI.480
T2 chain: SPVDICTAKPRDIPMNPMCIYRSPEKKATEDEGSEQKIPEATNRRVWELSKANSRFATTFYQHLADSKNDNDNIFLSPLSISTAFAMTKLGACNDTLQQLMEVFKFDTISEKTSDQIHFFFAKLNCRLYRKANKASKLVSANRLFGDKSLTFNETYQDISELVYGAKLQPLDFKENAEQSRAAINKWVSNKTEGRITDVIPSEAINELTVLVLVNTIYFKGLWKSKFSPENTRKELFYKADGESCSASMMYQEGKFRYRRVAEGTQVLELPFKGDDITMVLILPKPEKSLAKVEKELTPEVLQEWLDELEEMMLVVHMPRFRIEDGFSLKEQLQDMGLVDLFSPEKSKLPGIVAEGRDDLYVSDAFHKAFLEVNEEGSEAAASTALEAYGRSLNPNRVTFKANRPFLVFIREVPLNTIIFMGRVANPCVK

T3: LEAI.472
T3 chain: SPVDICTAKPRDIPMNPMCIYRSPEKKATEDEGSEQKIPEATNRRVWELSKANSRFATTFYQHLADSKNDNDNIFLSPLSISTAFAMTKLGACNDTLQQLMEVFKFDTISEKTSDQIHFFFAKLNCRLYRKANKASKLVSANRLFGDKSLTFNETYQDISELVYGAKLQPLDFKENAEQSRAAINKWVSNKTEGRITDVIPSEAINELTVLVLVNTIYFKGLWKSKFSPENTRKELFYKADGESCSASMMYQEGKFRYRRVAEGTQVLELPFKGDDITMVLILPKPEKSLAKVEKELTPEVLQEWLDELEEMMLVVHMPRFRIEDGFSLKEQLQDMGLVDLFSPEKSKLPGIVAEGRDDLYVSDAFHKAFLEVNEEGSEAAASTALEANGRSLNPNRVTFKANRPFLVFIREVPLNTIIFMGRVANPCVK

T4: LEAI.482
T4 chain: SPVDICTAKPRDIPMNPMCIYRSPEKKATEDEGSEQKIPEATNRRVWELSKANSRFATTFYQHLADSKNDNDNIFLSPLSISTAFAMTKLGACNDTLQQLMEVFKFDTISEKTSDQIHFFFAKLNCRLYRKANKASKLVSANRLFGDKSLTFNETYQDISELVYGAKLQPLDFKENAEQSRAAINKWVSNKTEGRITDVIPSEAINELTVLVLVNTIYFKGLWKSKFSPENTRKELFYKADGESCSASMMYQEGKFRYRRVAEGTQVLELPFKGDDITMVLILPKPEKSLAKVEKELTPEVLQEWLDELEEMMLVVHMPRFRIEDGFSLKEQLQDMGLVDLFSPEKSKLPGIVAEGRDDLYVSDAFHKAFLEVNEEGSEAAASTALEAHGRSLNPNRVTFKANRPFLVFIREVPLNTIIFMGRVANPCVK


Legend:
[1] = biological target: T1, LEAI.474
[2] = biological target: T2, LEAI.480
[3] = biological target: T3, LEAI.472
[4] = biological target: T4, LEAI.482
[5] = biological target: plasma-derived ATIII, P01008

Row | Protein | Substrate: halflife, min, CatG [1] | Substrate: halflife, min, CatG [2] | Substrate: halflife, min, CatG [3] | Substrate: halflife, min, CatG [4] | Substrate: halflife, min, HNE [1] | halflife HNE/hep as a percentage of plasma ATIII value [1] | Substrate: halflife, min, HNE [2] | halflife HNE/hep as a percentage of plasma ATIII value [2] | Substrate: halflife, min, HNE [3] | halflife HNE/hep as a percentage of plasma ATIII value [3] | Substrate: halflife, min, HNE [4] | halflife HNE/hep as a percentage of plasma ATIII value [4] | Substrate: halflife, min, HNE [5]
1 | human neutrophil cathepsin G (protein) IIGGRESRPHSRPYMAYLQIQSPAGQSRCGGFLVREDFVLTAAHCWGSNINVTLGAHNIQRRENTQQHITARRAIRHPQYNQRTIQNDIMLLQLSRRVRRNRNVNPVALPRAQEGLRPGTLCTVAGWGRVSMRRGTDTLREVQLRVQRDRQCLRIFGSYDPRRQICVGDRRERKAAFKGDSGGPLLCNNVAHGIVSYGKSSGVPPEVFTRVSSFLPWIRTTMRS | > 300 min | 35.8 min | 333 min | > 240 min |  |  |  |  |  |  |  |  | 
2 | human neutrophil elastase (protein) IVGGRRARPHAWPFMVSLQLRGGHFCGATLIAPNFVMSAAHCVANVNVRAVRVVLGAHNLSRREPTRQVFAVQRIFENGYDPVNLLNDIVILQLNGSATINANVQVAQLPAQGRRLGNGVQCLAMGWGLLGRNRGIASVLQELNVTVVTSLCRRSNVCTLVRGRQAGVCFGDSGSPLVCNGLIHGIASFVRGGCASGLYPDAFAPVAQFVNWIDSIIQ |  |  |  |  | 38.4 min | 1324% | 19.9 min | 686% | 30.1 min | 1038% | 25.3 min | 872% | 2.9 min
